Results published in patent US20100062011A1.

Assays:
[1] = molecular target: Peptide having the amino acid sequence of the 298th to 312th of Gag protein derived from HIV-1 (HIV-1); test: ELISA, serial 2-fold serum dilutions on coated Gag peptide; negative control serum
[2] = molecular target: Amyloid β-peptide consisting of 42 amino acid residues (human); test: ELISA, serial 2-fold serum dilutions on coated Aβ (SEQ ID NO:2); negative control serum
[3] = molecular target: TetT3L, T-cell epitope peptide derived from tetanus toxoid
[4] = molecular target: DTL, T-cell epitope peptide derived from diphtheria toxoid; test: ELISA, serum dilutions on coated DTL peptide; control serum

Substance | antibody titer [1] | antibody titer [2] | antibody titer [3] | antibody titer [4]
Antiserum from BALB/c mice not vaccinated (negative control, Experiment 1) (antibody) | 5.7 | 9.2 | – | –
Serum of BALB/c mice given neither peptide nor binary mixed vaccine (Experiment 2) (antibody) | – | – | 3 | 3
